For 2 substances, stoichiometry N results are on record in PMC9510766.

The stoichiometry N is a count of units in the complex or per binding partner.

In assay [1] the target is recombinant Cas2C of Leptospira interrogans serovar Copenhageni (rLinCas2C) (L. interrogans serovar Copenhageni strain Fiocruz L1-130). The assay can be described thus: SEC; size-exclusion chromatography of the Ni-NTA purified recombinant protein; conditions not shown. In general terms: Size exclusion chromatography separates by hydrodynamic size, large species first.
The target in assay [2] is recombinant Cas2C of Leptospira interrogans serovar Lai (rLinCas2C_Lai) (L. interrogans serovar Lai). The description is as above.

“recombinant Cas2C of Leptospira interrogans serovar Copenhageni (rLinCas2C) (enzyme)”: the stoichiometry N in assay [1] amounted to 2.
In the case of “recombinant Cas2C of Leptospira interrogans serovar Lai (rLinCas2C_Lai) (enzyme)”, the stoichiometry N in assay [2] stood at 3.
